These results are taken from patent EP3988566A1.

The target of one test is amyloid beta 1-42 fibers (UniProt P05067). The test can be described thus: cell-based or functional assay.
Test [1] addresses amyloid beta 1-42 monomers (UniProt P05067). Put plainly: cell-based or functional assay.

Chain of amyloid beta 1-42 fibers (P05067 672-713 limits assumed): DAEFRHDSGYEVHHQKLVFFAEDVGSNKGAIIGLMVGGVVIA
Chain of amyloid beta 1-42 monomers (P05067 672-713 limits assumed): as above

On to “humanized anti-human amyloid beta monoclonal antibody hC2”, for which, in the test with amyloid beta 1-42 fibers, the disaggregation of pre-aggregated Aβ1-42, thioflavin T assay, antibody to Aβ1-42 molar ratio 1:10 stood at 31.9% and the disaggregation of pre-aggregated Aβ1-42, thioflavin T assay, antibody to Aβ1-42 molar ratio 1:100 came out at 23.9%. Besides, in test [1], the inhibition of Aβ1-42 aggregation, thioflavin T assay, antibody to Aβ1-42 molar ratio 1:10 is 80.4% and the inhibition of Aβ1-42 aggregation, thioflavin T assay, antibody to Aβ1-42 molar ratio 1:100 stood at 30%.
